Here are results for 2 proteins from paper doi:10.1101/370387 (bioRxiv, 2018).

Series [1] concerns the molecule itself. The series is described as follows: cryo-EM structure.
Series [2] concerns the molecule itself. The series is described as follows: cryo-EM structure. The source holds these as a separate data set.

Where a chain is given by its changes, count along the chain named. Read-outs that look alike come from different tables or passages of the source. No end group written: not given here.

A word on the stoichiometry N: it is the number of molecules, sites or subunits per partner or assembly.

B1: phospholamban Asn27-Ala mutant (canine PLN sequence), super-inhibitory pentameric form (natural protein, UniProt P61012 1-52, looked up)
chain: MDKVQYLTRSAIRRASTIEMPQQARQALQNLFINFCLILICLLLICIIVMLL
modifications: cysteine pairing not given here; also: pentameric form
Regarding B1, the “stoichiometry N” value in “cryo-EM structure [1]” amounted to 4.

B2: phospholamban Lys27-Ala mutant (human PLN sequence), super-inhibitory pentameric form (natural protein, UniProt P26678 1-52, looked up)
chain: B1 chain with D2E
modifications: cysteine pairing not given here; also: pentameric form
Regarding B2, the “stoichiometry N” value in the series “cryo-EM structure [2]” worked out at 5.
